Measured values: US20230192824A1 (UNITED STATES OF AMERICA AS REPRESENTED BY THE SECRETARY OF …, published 2023)

Assays:
[1] = molecular target: T1, CfaE PD, pilin domain (residues 203-383) of CfaE (Escherichia coli (ETEC) strain H10407); test: ELISA on coated CfaE domains (FIG. 10)
T1 construct: Tag not written for this construct; also called CfaE pilin domain
T1 chain: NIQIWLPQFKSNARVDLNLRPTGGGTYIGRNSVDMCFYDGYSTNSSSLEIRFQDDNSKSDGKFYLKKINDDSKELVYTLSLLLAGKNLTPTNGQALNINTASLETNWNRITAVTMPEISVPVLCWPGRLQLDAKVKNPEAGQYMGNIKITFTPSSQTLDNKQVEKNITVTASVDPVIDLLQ

[2] = molecular target: T2, dsc19CsbD6xhis (WS6788A), donor strand complemented recombinant CS17 fimbrial tip adhesin CsbD (Escherichia coli (ETEC) strain WS6788A); test: ELISA on coated adhesin
T2 construct: also called dscCsbD; primary CsbD
T2 chain: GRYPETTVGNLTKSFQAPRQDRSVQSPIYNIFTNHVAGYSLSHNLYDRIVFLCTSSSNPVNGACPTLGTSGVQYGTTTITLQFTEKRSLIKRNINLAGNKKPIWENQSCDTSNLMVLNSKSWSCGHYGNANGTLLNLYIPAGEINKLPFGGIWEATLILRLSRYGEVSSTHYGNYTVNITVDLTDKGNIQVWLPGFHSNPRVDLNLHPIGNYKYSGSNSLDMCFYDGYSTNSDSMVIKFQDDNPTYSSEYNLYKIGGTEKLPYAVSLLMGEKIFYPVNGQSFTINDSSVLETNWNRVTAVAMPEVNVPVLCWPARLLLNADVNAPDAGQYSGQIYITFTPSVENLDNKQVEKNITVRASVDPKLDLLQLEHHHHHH

[3] = molecular target: T3, dsc19CotD6xhis (C91f), donor strand complemented recombinant CS2 fimbrial tip adhesin CotD (Escherichia coli (ETEC) strain C91f); test: ELISA on coated adhesin
T3 construct: also called dscCotD; CS2 adhesin
T3 chain: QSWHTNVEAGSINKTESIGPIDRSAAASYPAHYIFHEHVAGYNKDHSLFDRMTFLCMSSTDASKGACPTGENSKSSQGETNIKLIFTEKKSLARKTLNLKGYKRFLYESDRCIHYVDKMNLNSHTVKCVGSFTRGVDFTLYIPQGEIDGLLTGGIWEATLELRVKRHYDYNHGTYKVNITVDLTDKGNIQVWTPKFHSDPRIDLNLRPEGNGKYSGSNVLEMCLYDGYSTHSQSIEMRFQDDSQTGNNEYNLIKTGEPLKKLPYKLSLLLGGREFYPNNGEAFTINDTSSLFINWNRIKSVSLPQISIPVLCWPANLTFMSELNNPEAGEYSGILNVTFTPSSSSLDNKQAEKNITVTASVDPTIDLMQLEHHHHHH

[4] = molecular target: T4, CsbD L85I/H144A, tip adhesin of CS17 fimbriae on wild type ETEC strain LSN02-013966/A (Escherichia coli (ETEC) strain …); test: cell-based or functional assay
T4 chain: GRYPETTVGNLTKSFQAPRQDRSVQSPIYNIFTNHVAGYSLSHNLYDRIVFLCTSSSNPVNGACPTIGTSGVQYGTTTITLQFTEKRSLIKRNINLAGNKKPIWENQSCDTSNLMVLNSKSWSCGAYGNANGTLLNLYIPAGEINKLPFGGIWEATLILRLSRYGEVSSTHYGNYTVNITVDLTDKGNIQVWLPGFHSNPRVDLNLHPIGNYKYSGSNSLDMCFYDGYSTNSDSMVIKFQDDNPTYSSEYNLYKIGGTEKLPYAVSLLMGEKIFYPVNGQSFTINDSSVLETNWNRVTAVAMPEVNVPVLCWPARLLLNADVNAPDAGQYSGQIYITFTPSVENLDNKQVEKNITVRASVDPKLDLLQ

[5] = molecular target: CsuD, tip adhesin of CS14 fimbriae on wild type ETEC strain WS3294A (Escherichia coli (ETEC) strain WS3294A); test: cell-based or functional assay
[6] = molecular target: T5, CfaE, tip adhesin of CFA/I fimbriae on wild type ETEC strain H10407 (Escherichia coli (ETEC) strain H10407, UniProt P25734 23-360); test: cell-based or functional assay
T5 sequence: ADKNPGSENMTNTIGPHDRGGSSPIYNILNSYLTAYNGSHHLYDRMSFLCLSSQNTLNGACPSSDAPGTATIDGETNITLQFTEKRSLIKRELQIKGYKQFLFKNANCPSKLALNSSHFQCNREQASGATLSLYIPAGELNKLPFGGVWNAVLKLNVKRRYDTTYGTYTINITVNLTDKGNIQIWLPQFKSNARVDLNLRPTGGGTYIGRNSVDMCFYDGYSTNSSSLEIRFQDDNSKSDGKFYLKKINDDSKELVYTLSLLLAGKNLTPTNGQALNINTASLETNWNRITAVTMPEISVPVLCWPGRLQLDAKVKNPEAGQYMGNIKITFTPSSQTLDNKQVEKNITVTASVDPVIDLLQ

[7] = molecular target: T6, CsbD, tip adhesin of CS17 fimbriae on wild type ETEC strain WS6788A (Escherichia coli (ETEC) strain WS6788A); test: cell-based or functional assay
T6 chain: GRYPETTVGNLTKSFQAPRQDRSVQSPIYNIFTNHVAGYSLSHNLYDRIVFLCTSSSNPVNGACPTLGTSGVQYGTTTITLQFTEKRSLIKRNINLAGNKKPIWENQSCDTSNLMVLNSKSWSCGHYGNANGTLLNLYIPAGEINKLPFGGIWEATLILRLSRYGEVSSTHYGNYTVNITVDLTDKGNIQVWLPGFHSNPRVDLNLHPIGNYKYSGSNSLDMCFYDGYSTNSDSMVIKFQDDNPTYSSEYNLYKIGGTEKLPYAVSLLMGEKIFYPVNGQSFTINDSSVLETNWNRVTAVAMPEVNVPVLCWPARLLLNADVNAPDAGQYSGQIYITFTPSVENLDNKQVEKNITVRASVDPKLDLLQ

[8] = molecular target: T7, CotD, tip adhesin of CS2 fimbriae on wild type ETEC strain C91f (Escherichia coli (ETEC) strain C91f); test: cell-based or functional assay
T7 chain: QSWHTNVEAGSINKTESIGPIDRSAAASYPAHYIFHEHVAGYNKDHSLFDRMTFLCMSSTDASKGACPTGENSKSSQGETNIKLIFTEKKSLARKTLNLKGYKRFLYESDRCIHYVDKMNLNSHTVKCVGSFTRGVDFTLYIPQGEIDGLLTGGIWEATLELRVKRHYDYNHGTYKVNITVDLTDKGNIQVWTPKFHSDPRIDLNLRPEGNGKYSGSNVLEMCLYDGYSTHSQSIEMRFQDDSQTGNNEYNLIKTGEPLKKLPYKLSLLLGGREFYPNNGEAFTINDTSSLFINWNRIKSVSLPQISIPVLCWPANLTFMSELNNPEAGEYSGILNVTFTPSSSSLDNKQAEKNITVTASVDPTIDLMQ

[9] = molecular target: CsfD, tip adhesin of CS4 fimbriae on wild type ETEC strain BANG10-SP (Escherichia coli (ETEC) strain BANG10-SP); test: cell-based or functional assay
[10] = molecular target: CooD, tip adhesin of CS1 fimbriae on wild type ETEC strain WS1974A (Escherichia coli (ETEC) strain WS1974A); test: cell-based or functional assay

B1: anti-CfaE mouse mAb P1F9 (antibody, V domains shown)
VH: QVQLQQPGAELVKPGASVKLSCKASGYTFTSYWMHWVRQRPGQGLDWIGEIDPSDSYINYNQKFKGKATLTVDKSSSTAYMQLSSLTSEDSAVYYCGRKSLGVSVLAYWGQGTPVTVSA
VL: DIVMTQSHKFMSTSVGDRVSISCTASQDVNAAVAWYQQKPGQSPKLLIYWASTRHTGVPDRFTGSGSGTDYTLTISSVQAEDLALYYCQQHYSTPLTFGAGTKLELK
B1: binds [1]; no binding (tested: mAb 2 ug/ml) [2]; no binding (tested: mAb 2 ug/ml) [3]. For the same binder, the “MIC in HAI” value [4] was over 250 µg/mL, the “MIC in HAI” value [5] was over 250 µg/mL and the “MIC in HAI” value [6] was 1.5 µg/mL. The “MIC in HAI” value [7] was over 250 µg/mL, the “MIC in HAI” value [8] was over 250 µg/mL and the “MIC in HAI” value [9] was over 250 µg/mL. For the same binder, the “MIC in HAI” value [10] was over 250 µg/mL.
